Assay results: the DeepSol protein solubility set

Assay: soluble on expression in E. coli; label from the status in PepcDB or PDB records

Sequence	soluble on expression in E. coli
MSLDFEYVTGEEGLKKAIKRLENSPYLYLDTETTGDRIRLVQIGDEENTYVIDLYEIQDIEPLRKLINERGIVGHNLKFDLKYLYRYGIFPSATFDTMIASYLLGYERHSLNHIVSNLLGYSMDKSYQTSDWGASVLSDAQLKYAANDVIVLRELFPKMRDMLNELDAERGEELLKTRTAKIFDLKSPVAIVEMAFVREVAKLEINGFPVDVEELTNKLKAVERETQKRIQEFYIKYRVDPLSPKQLASLLTKKFKLNLPKTPKGNVSTDDKALTSYQDVEPVKLVLEIRKLKKIADKLKELKEHLKNGRVYPEFKQIGAVTGRMSSAHPNIQNIHRDMRGIFKAEEGNTFVISDFSQIELRIAAEYVKDPLMLDAFKKGKDMHRYTASVVLGKKEEEITKEERQLAKAINFGLIYGISAKGLAEYAKLGYGVEISLEEAQVLRERFFKNFKAFKEWHDRVKKELKEKGEVKGHTLLGRRFSANTFNDAVNYPIQGTGADLLKLAVLLFDANLQKKGIDAKLVNLVHDEIVVECEKEKAEEVKEILEKSMKTAGKIILKEVPVEVESVINERWTKEGHHHHHH	soluble
MSQPLTTNSVLVEEAAADGDSSAAAPPLFDYHRIDQKLLQNIVYDALVWSTLNCLLVGDKSVQRSGRVPGVGLVHLPLSLLPGPFPESHWKQGCELAPIFNELVDRVSLDGKFLQESLSRTKNADEFTSRLLDIHSKMLQINKKEDIRMGIVRSDYMIDEKTKSLLQIEMNTISTSFALIGCLMTGLHKSLLSQYGKFLGLNSNRVPANNAVDQSAEALAKAWSEYNNPRAAILVVVQVEERNMYEQHYISALLREKHHIRSIRKTLTEIDQEGKILPDGTLSVDGQAISVVYFRAGYTPKDYPSESEWRARLLMEQSSAIKCPTISYHLVGTKKIQQELAKPGVLERFVENKDHIAKLRACFAGLWSLEDSDIVKKAIENPELFVMKPQREGGGNNIYGDELRETLLKLQEAGSQEDAAYILMQRIFPATSPAILVRDGNWDTGHVISEAGIFGTYLRNKDKIIINNESGYMVRTKISSSYEGGVLPGFGVVDTVYLT	soluble
MGSSHHHHHHSSGLVPRGSKTFIIGISGVTNSGKTTLAKNLQKHLPNCSVISQDDFFKPESEIETDKNGFLQYDVLEALNMEKMMSAISCWMESARHSVVSTDQESAEEIPILIIEGFLLFNYKPLDTIWNRSYFLTIPYEECKRRRSTRVYQPPDSPGYFDGHVWPMYLKYRQEMQDITWEVVYLDGTKSEEDLFLQVYEDLIQEL	soluble
MSLSDHKIDRIRVHRVLIPGKAVHSHGIGDVAGIHAVILEVITDTGLTGWGEASPWPAFTGTAEGTVAALYTYLRPHLIGQDPVQVERHMRDAEALVVGHPEAKAALEMALLDLTGQISGLSVCELVGGRMRDDMGLSFSVANPDFGKDLEDVAAMWAEGVRIFKIKTGFKSHGFDLMRLEKLRGIYGAEADLRIDYNQGLPAYDAVRCIRDLEAFRPTFVEQPVKMHERDALAHIAHVIETPIMADESVFGVREALHGVQIRMADIFSLKVMKSGGIRRALEVSAIARAAGIEVYGGCMFETGLAHAAGAHLMAALPELRLDCEFYMSTYYASEDILTEPFPVRGGRVHVPEGPGLGVAVDPAMLAKYAQAEALGEGHHHHHH	soluble
MTKIGINGFGRIGRNVFRAALNNSEVEVVAINDLTDAKTLAHLLKYDTVHGTLNAEVSANENSIVVNGKEIKVIAERDPAQLPWSDYGVEVVVESTGRFTKKSDAEKHLGGSVKKVIISAPASDEDITVVMGVNHEQYDAANHNVVSNASCTTNCLAPFAKVLNEKFGVKRGMMTTIHSYTNDQQILDLPHKDLRRARAAAENMIPTSTGAAKAVALVLPELKGKLNGGAVRVPTANVSLVDLVVELDKEVTVEEVNAAFKAAAEGELKGILGYSEEPLVSIDYNGCTASSTIDALSTMVMEGNMVKVLSWYDNETGYSNRVVDLAAYMTSKGL	soluble
MEGEKGSKTRKGDALAREKLLEIAEKIYNQFEEEVVPSVSLPSRTKANLEYSDESDVWVYGDRESERSAKTVKGAFQLLKTTYATDFLINEHLARNRGSTLRELYYISEGWDYAKFKEQGESDRLIEDLEILTSLQREYFHMRPEEDGATMFGPIEITEQTKRGERNIHCQKDVGEGGYQIPFNVENIEFQKHDASMIIAIETGGMYARLMENGFDEAYNAILVHLKGQPARSTRRIIKRMNEELGIPVAVFTDGDPWSYRIYASVAYGAIKSAHLSEFMATPAAKFLGLQPSDIVEYELSTDKLTEQDVSALRSELSDPRFESDYWKEQIQLQLDIGKKAEQQAFAGKGLDFVTEVYLPNRLKEMGMI	soluble
MGSDKIHHHHHHAHELEANEKYPGKSVKAQTRKEIVTFFSESLSGKTTTFDAGKPLKLSEVEHYRDVVWQLWKEANDGFKEEKLIALDTLSSASTGYWKLPDSLEPNAVMPYYWGMKGTDEIGNELPLFLYLHGSGPKEREWSTGLNICRNFDDAPSVYFIPQIPNEGEYYRWWQKAKQFAWEKLLRQSLLLGKIDPNRVYVFGISEGGYGSQRLASFYADYWAAAGPMAGGEPLKNAPAENCSNIAFSLRTGDKDTGFYRNTLTGYVREAFDSLAHQHPGYFTHKIELIPGMGHSIDYRPTTPWLKQYVRNPYPKYVSWENFEMDGLYRKGFYNLYVKERSDEEGKSRTYYEMSISGNHISLKVDDVVYEATEKDQRWGIEMKFAKKYAQAHKGKVVIYLCDELVDLTEKVTLTVNGKKVFEGKVKADLKNMVNSCAVFFDPQRLYPAAIEVELK	not soluble
MGQNDLVKTLRMNYLFDFYQSLLTNKQRNYLELFYLEDYSLSEIADTFNVSRQAVYDNIRRTGDLVEDYEKKLELYQKFEQRREIYDEMKQHLSNPEQIQRYIQQLEDLE	not soluble
MRIHAFHHLYQYRLERSTKPFLARGGKIKRCLYCLVELTHCLCAHQPDIESQVAVLLIVSENEVFKPSNTGRLIADTVKETYVYQWSRTEPNPEMLALLSNPAYYPVLIFPAETEEDKTRVLSPIPTEFAGKKPLLVLIDGSWREAKRIFRKSPYLASLPLVSVEPERLSQYIMRKSENEQHLATAEVASLVLDMFGDRHSASTLSLWFEAFKETYLTCKSRNKPSITKPALQRWIAHQQNANCLLEHHHHHH	not soluble
GSHMSSPVNEEENSQRISTLHHQTMPSDLTQDEFTQLSQSIAEFHTYQLGNGRCSSLLAQRIHAPPETVWSVVRRFDRPQIYKHFIKSCNVSEDFEMRVGCTRDVNVISGLPANTSRERLDLLDDDRRVTGFSITGGEHRLRNYKSVTTVHRFEKEEEEERIWTVVLESYVVDVPEGNSEEDTRLFADTVIRLNLQKLASITEAMNRN	soluble
MSLAEILMGVGNAGLKESGNPDILVVYLPYPCTASFVFTDNYFKAGSVIYSERIARDKERIRAFVVNSGNANCGTGEEGIKHAEMMAEKVAQILDIPKDEVFVFSTGIIGKYLPIENVLKGIEQACSNLELLDLKRASEVISTTDRFPKYDFAKAGEVETFGFAKGAGMIHPSMATMLAFVFTNANLEYLTLKRIHESVTEKTFNSITVDGCESTNDAFGIISLGEVEADPETVEFELLKVSESLAKQIVADGEGATKIIRVNVRSAITEIKAREIAEAIANSLLVKTAVFGRDPNWGRIAAAAGSTEFPIDPFKLEIYVGGYLLYDGKPHDENLEKAKKHLIEDREVDITVELNEGEYEWVCYSSDIGYDYIKLNAEYTTEGHHHHHH	soluble
MGSDKIHHHHHHMHVYESDVSWIDDRRTEVSVGDHRIEVDSPPEFGGPEGQLYPETLFPSVLASCLLTTFLEFKDRMGINLKSWNSHVTAELGPSPEKGFKFHRIKIHVKIGVNDEDKEKIPRAMQLAEKYCFISRAIRNNVEEIVDYEFV	not soluble
SMAFKIQLDTLGQLPGLLSIYTQISLLYPVSDSSQYPTIVSTFEQGLKRFSEAVPWVAGQVKAEGISEGNTGTSFIVPFEDVPRVVVKDLRDDPSAPTIEGMRKAGYPMAMFDENIIAPRKTLPIGPGTGPDDPKPVILLQLNFIKGGLILTVNGQHGAMDMVGQDAVIRLLSKACRNDPFTEEEMTAMNLDRKTIVPYLENYTIGPEVDHQIVKADVAGGDAVLTPVSASWAFFTFSPKAMSELKDAATKTLDASTKFVSTDDALSAFIWKSASRVRLERIDGSAPTEFCRAVDARPAMGVSNNYPGLLQNMTYHNSTIGEIANESLGATASRLRSELDPASMRQRTRGLATYLHNNPDKSNVSLTADADPSTSVMLSSWAKVGLWDYDFGLGLGKPETVRRPIFEPVESLMYFMPKKPDGEFCAALSLRDEDMDRLKADKEWTKYAQYVG	soluble
